Assay: soluble on expression in E. coli; label from the status in PepcDB or PDB records

Row | Sequence | soluble on expression in E. coli
1 | SLESYLRLSEVDKQILHSHALMLDGLGNFFGSTHEVILHSLENLESSAIKVINGHFSNRKEGAPITDMALKMLSQVESEHDYAVKPYYNKNQKGVILKSSTIPVIGENDRIIGLICINMHLEMPLIDYLQDLLPSGQQNDMSQELKNSEHFSDNIDELITTSLTKVKQAVESDPNVSHLNQNKEIVIRLYDQGIFNLKDSVIKIADRLGISKNTIYLHIRNHKKEEA | soluble
2 | SLGAGQPLGGYAEDLEGRQADLPKYSRANVRIVFAAVFPESNVYQGGEGYPTPSSSRLLLLDQVKTYYALSSIHGVEIIESWRSAQEVLEAPRWRLGLLLHLEGADALADILDLELLHRLGFRSLGLTWNHDNRWAASCKTRRDYGLTQSGEDLVKKAAELGVIIDLAHASDKTVADAASASPKPVIVSHANFRWKVDSPRNVGEEAVEAVVSKGGVIGYSLISTLITRGRHPTLHDVASQMAEFVEVYGHRHLAIGTDYHGLLDIRPPTGLESIDRLPRLLEALADAGLSDRQIEAIAYGNIARVIREVLPES | not soluble
3 | SLGFIMKLTKTALCTALFATFTFSANAQTYPDLPVGIKGGTGALIGDTVYVGLGSGGDKFYTLDLKDPSAQWKEIATFPGGERNQPVAAAVDGKLYVFGGLQKNEKGELQLVNDAYRYNPSDNTWMKLPTRSPRGLVGSSGASHGDKVYILGGSNLSIFNGFFQDTVAAGEDKAKKDEIAAAYFDQRPEDYFFTTELLSYEPSTNKWRNEGRIPFSGRAGAAFTIQGNELVVVNGEIKPGLRTAETHQGKFTAKGVQWKNLPDLPAPKGKSQDGLAGALSGYSNGHYLVTGGANFPGSIKQFKEGKLHAHKGLSKAWHNEVYTLNNGKWRIVGELPMNIGYGFSVSYNNKVLLIGGETDGGKALTSVKAISYDGKKLTIE | not soluble
4 | SLGMIKNSLFGSVETWPWQVLSKGDKEEVAYEERACEGGKFATVEVTDKPVDEALREAMPKVAKYAGGTNDKGIGMGMTVPISFAVFPNEDGSLQKKLKVWFRIPNQFQSDPPAPSDKSVKIEEREGITVYSMQFGGYAKEADYVAQATRLRAALEGTATYRGDIYFCTGYDPPMKPYGRRNEIWLLKT | soluble
5 | SLIENSHVKKDDIWPSGGQMTVKDLTAKYTEGGNAILENISFSISPGQRVGLLGRTGSGKSTLLSAFLRLLNTEGEIQIDGVSWDSITLEQWRKAFGVIPQKVFIFSGTFRKNLDPYEQWSDQEIWKVADEVGLRSVIEQFPGKLDFVLVDGGCVLSHGHKQLMCLARSVLSKAKILLLDEPSAHLDPVTYQIIRRTLKQAFADCTVILCEARIEAMLECDQFLVIEENKVRQYDSIQKLLNERSDFRQAISPSDGPSAQLEKELQALEKENAQLEWELQALEKELAQ | soluble
6 | SLKKWLVTIAALWLAGCSSGEINKNYYQLPVVQSGTQSTASQGNRLLWVEQVAVPDYLAGNGVVYQTSDVKYVIANNTLWASPLDQQLRNTLVANLSTQLPGWVVASQPLGSAQDTLNVTVTEFNGRYDGKVIVSGEWLLNHQGQLIKRPFRLEGMQTQDGYDEMVKVLASVWSQEAASIAQEIKRLP | soluble
7 | SLKQPVFKKVLQVGIVVHDLEKAVRTYADDFGIGPWQFYNLDKSNMHDMKMRGEKAEFSMKVAFTDLGGVQLELIEPLDESIYSDFLREHGEGIHHIACGVRNFEETMASMQKKDIKVLLEGTTSAGMGYVYLDTTDALSCITEIYRIPENLQYIPPDKTYEG | soluble
8 | SLLGQKSQRYKAEEGLQAQGEAPGLMDVQIPTAEEQKAASSSSTLIMGTLEEVTDSGSPSPPQSPEGASSSLTVTDSTLWSQSDEGSSSNEEEGPSTSPDPAHLESLFREALDEKVAELVRFLLRKYQIKEPVTKAEMLESVIKNYKNHFPDIFSKASECMQVIFGIDVKEVDPAGHSYILVTCLGLSYDGLLGDDQSTPKTGLLIIVLGMILMEGSRAPEEAIWEALSVMGLYDGREHSVYWKLRKLLTQEWVQENYLEYRQAPGSDPVRYEFLWGPRALAETSYVKVLEHVVRVNARVRISYPSLHEEALGEEKGV | soluble
9 | SLLLCDIGNSNANFLDDNKYFTLSIDQFLEFKNEQKIFYINVNEHLKEHLKNQKKFINLEPYFLFDTIYQGLGIDRIAACYTIEDGVVVDAGSAITIDIISNSIHLGGFILPGIANYKKIYSHISPRLKSEFNTQVSLDAFPQKTMDALSYGVFKGIYLLIKDAAQNKKLYFTGGDGQFLANYFDHAIYDKLLIFRGMKKIIKENPNLLY | soluble
10 | SLLLRLCRWLRLLGYPTVAAHEVVDPTKVEDEDEVLVEFCREHDALLITRDRQLARRARAVLITADSVPEQIAEVLEFLGDEAFLDPDESRCPECNARVRRVTAENPGPFEVTWECPECRRKYWVGGHWRDMEETIDRVKKALRRVQRGHLRG | not soluble
11 | SLMDVKCETPNCPFFMSVNTQPLCHECSERRQKNQN | soluble
12 | SLPSAQAPSLLNPTDDFAALGNIAWLWMNSPMHRDWPVHLLARNTLAPIQLGQYILLRCNDVPVAYCSWALMDADTELSYVMAPSSLGGNAWNCGDRLWIIDWIAPFSRDDNRALRRALAERHPDSVGRSLRVRRGGDTARVKEYRGRALDAAAARAQLDRYHAELIAGLRASNGGYAPR | soluble
13 | SLQIKKLFIALGIVLPLHMQGQNFLIKDAPEVIESYVNQFNREDNELYKQDIPNCGASDFLRKNIPFFECPDKELEKTYYFRWWTYRKHIKKTPDGFVITEFLPDVPWSGKYNTISCAANHHFYEGRWLRNAEILSDYASFWFSGSGNPRLYSFGAADAIYNYYLIHNDKMLLADLYPKLKDNFAKWEEEKRDSTGMFWQVDDRDGMEMSVSGHLSEGGRGYRPTINSYMYGEAVALAKIASIVDRDMEARTYQKKADKLKGIINRRLWDKQADFYKVIPLNGKMEFSYARELLGYIPWFYNIPPDNYSIAWKQLFDSKGFEAAYGPTTVEQRCPDFKISYEGHECQWNGPSWPYLTSMTLAAMANYFNSYDSPIITKKDYLSLLNIYSNSHRILSVNNDTICWIDENINPYTGDWISRTRLKSWKNGTWDDSKGGVERGKDYNHSSFCNLIISGLMGVRPQEDGSIIINPLVPDGCWDYFCLDNVYCQGKTITIIFDKKGKKYGRGKGFIVYVDDKCLSHTTRVQKVVIR | not soluble
14 | SLQKFNQIHSLFEHLPANYGEFSDFEQKIATLAQEMKVDLSLYEIDHLSIRVNTEDKAKSWLTTLLNYGKILSNNLVNGRAIYLIELEQPLLFMGQRVFIIELPFPKNKHYPVESWEHIEFVIPFLPNESSIEWVERVQQQFLWNQSGNLTIKVDEPKVDGEQLPNPSIAVSFADKSQNHVCIKVHPFNIKNIIKVSEG | soluble
15 | SLRAFRRATDVKTMAALDIQISVEAEGWSSEENLAAFATKVLNAAVDFLKREEEQPFPKMPVELSLVFTDDENIREINAEWRDKDKATNVLSFPAFPLEPGGMPGPMLGDIVIARETVEREALELDKSFEDHLTHLLVHGFLHLFGYDHMDEEEAEEMESLETRILAVLGLSDPYAGQE | not soluble
16 | SLREMKHLRSIEQEIKMSIPSQEVPTIEDVVEKQKESWKKQIAHRIEKGSNQKHLFEQMTEELMAEYDSKEVISALLQLNYAMDTAPEDAGYSFGETGGAKGMVRFFINVGRNVNMSPKILVEEIAELVGIPGKAIGRIDIFEKFTFVEVPEEVAPFVYEALRYSRINGARVNLEPAKPRPKRESQRRTFQK | soluble
17 | SLSEGYLSGLEYWNDIHWSCASYNEQVAGEKEEETNSVATLSYSSVDETQVRSLYVSCKSSGKFISSVHSRESQHSRSQRVTVLQTNPNPVFESPNLAAVEICRDASRETYLVPSSCKSICKNYNDLQIAGGQVMAINSVTTDFPSESSFEYGPLLKSSEIPLPMEDSISTQPSDFPQKPIQRYSSYWRITSIKEKSSLQMQNPISNAVLNEYLEQKVVELYKQYIMDTVFHDSSPTQILASELIMTSVDQISLQVSREKNLETSKARDIVFSRLLQLMSTEITEISTPSLHISQYSNVNP | not soluble
18 | SLSEKVIDMYKSENCGCCSLWGKAMEKDGFEVRTHIMNDQALSALKEKHAIPAGLRSCHTAVAGNLIIEGHVPATTIHKAMQSGSGIYGLATPGMPAGSPGMEMGARKEAYDVIAFSPDGSKKVFQRIE | soluble

— the DeepSol protein solubility set
